The values below come from patent US20110008436A1 (published 2011).

Where no end group is shown, it is not given here.

Test [1] addresses T1, Substantially sericin-depleted silk fibroin from Bombyx mori (dissolved in 9.3 M LiBr, dialysed, then gelled … (Bombyx mori, UniProt P05790 22-5263; P21828 17-262, limits assumed).
T1 construct: also called silk molecule; depolymerized silk fibroin
Briefly: HPLC of 23RGD extracted from lyophilised silk precipitate; formulation labelled 0.6S 3R 10:1 (2.45 mg/mL 23RGD in 90% ethanol). As to the method:
(§1) The amount of 23RGD bound to silk precipitates was quantified by analyzing lyophilized samples. The 23RGD was removed by incubating the samples for 4 hours in a dissolving buffer, then centrifuging on an Eppendorf 5415C (Eppendorf North America Inc., Westbury, N.Y.) at 16,000 g (RCF) for 30 minutes and the supernatant collected. This supernatant was then centrifuged in identical fashion and the final supernatant collected for HPLC analysis using a PerkinElmer Series 200 (PerkinElmer, Waltham, Mass.). The 23RGD peak areas from each curve were compared against a standard curve. 1-Way ANOVA was used to test for significant differences caused by changing silk concentration, 23RGD concentration, and accelerant volume. A Student's t-test was used to test the significance of differences resulting from altered ethanol concentrations.

The target in test [2] is T1, Substantially sericin-depleted silk …. Briefly: HPLC of 23RGD extracted from lyophilised silk precipitate; AVLO formulation (low accelerant volume, calculated ratio 2.5). As to the method:
as §1

Test [3] has the same target. Briefly: HPLC of 23RGD extracted from silk precipitate; ECLO formulation (80% ethanol accelerant), against the calculated ratio. As to the method: as §1
Test [4] shares this target. Briefly: Inferred by the filing from the HPLC ratios of the precipitates. As to the method:
as §1

The target is the same in test [5]. Briefly: HPLC of 23RGD extracted from lyophilised silk precipitate; AVHI formulation (high accelerant volume, calculated ratio 10.0). As to the method:
as §1

Test [6] shares this target. Briefly: HPLC of 23RGD extracted from lyophilised silk precipitate; group called RMED (1.47 mg/mL 23RGD per paragraph 318, which is RLO in Table 10). As to the method:
as §1

Test [7] has the same target. Briefly: HPLC of 23RGD extracted from lyophilised silk precipitate; BASE formulation (calculated ratio 5.0). As to the method: as §1
For test [8] the target is unchanged. Briefly: HPLC of 23RGD extracted from lyophilised silk precipitate; RHI formulation (high 23RGD, calculated ratio 10.0). As to the method: as §1
Test [9] shares this target. Briefly: HPLC of 23RGD extracted from lyophilised silk precipitate; SCVLO formulation (very low silk concentration, calculated ratio 10.0). As to the method: as §1
For test [10] the target is unchanged. Briefly: HPLC of 23RGD extracted from silk precipitate, against the calculated ratio. As to the method:
as §1

Test [11] has the same target. Briefly: HPLC of 23RGD extracted from lyophilised silk precipitate; group called RLO in this sentence (0.49 mg/mL 23RGD per paragraph 318, which is RVLO in Table 10). As to the method: as §1
Test [12] shares this target. Briefly: HPLC of 23RGD extracted from lyophilised silk precipitate; SCLO formulation (low silk concentration, calculated ratio 6.7). As to the method:
as §1

The target is the same in test [13]. Briefly: HPLC of 23RGD extracted with dissolving buffer from the rinsed 23RGD-enhanced silk gel, against a 23RGD standard curve. The source says:
23RGD-infused gels were studied to quantify the amount of 23RGD bound to the silk-hydrogel device as well as the quantity of free 23RGD which might be rinsed free of the device under relevant conditions. Briefly, samples of 23RGD-infused gel were cast and rinsed according to the methods above, with samples of rinse buffer being collected from each rinse for subsequent analysis by HPLC. Additionally, subsequent to the last rinse, the gel samples were mechanically pulverized by means of a stainless steel stirring rod and the adsorbed 23RGD removed by incubation for 4 hours in a dissolving buffer. This mixture of gel and solvent was then centrifuged on an Eppendorf 5415C at 16,000 g RCF for 30 minutes. The supernatant was collected and centrifuged another 30 minutes at 16,000 g RCF after which time the supernatant was collected in a sample vial for HPLC analysis. Samples of rinse buffer from the first and last rinse were centrifuged in the same fashion after being diluted with the same solvent the gel was extracted with in a volumetric ratio of 1 part rinse buffer to 4 parts solvent. To ensure 23RGD-hydrogel device rinse-exposed surface area was not a limiting factor, the same rinse and extraction process was performed upon devices pulverized after gelation and before rinsing.

B1: 23RGD peptide (amphiphilic peptide GRGDIPASSKG4SRL6R-NH2) (peptide)
peptide: GRGDIPASSKGGGGSRLLLLLLR-NH2
notes: also called 23RDG
Turning to B1, the “23RGD:silk molar ratio bound” value in [1] was about 10 mol 23RGD per mol silk; in [2], 5.2 mol 23RGD per mol silk; in [5], 10.5 mol 23RGD per mol silk; in [6], 6.95 mol 23RGD per mol silk; in test [7], 8.7 mol 23RGD per mol silk; in [8], 10.7 mol 23RGD per mol silk. Also, the “23RGD:silk molar ratio bound” value in [9] is 11 mol 23RGD per mol silk; in test [11] it was 1.1 mol 23RGD per mol silk; in [12], 9.9 mol 23RGD per mol silk; in test [13] it was 3.35 mol 23RGD per mol silk. Further, the “fold of the expected (calculated) bound 23RGD” value in test [3] was about 1.5 fold; in [10], about 2 fold. Besides, the “apparent saturation, 23RGD:silk ratio” value in test [4] is about 10 mol 23RGD per mol silk.
